* marks the point of attachment. Palmitoyl = CCCCCCCCCCCCCCCC(=O)*
T1: protease-activated receptor 1 (PAR1), on cells (human, UniProt P25116 42-425)
T1 sequence (looked up): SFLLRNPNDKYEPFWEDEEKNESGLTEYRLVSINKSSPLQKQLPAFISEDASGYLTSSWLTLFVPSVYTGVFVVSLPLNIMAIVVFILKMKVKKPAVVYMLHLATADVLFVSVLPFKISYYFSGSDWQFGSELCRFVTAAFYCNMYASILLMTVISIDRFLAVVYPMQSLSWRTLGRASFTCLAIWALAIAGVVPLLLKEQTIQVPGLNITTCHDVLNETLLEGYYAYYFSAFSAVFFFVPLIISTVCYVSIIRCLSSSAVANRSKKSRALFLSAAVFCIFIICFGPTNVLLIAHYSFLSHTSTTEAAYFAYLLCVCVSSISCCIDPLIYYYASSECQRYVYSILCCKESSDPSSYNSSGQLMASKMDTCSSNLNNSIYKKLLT

B1: P2pal-18Q (peptide)
peptide: Palmitoyl-RSSAMDENSEKKRKQAIK-NH2
SMILES: CCCCCCCCCCCCCCCC(=O)N[C@@H](CCCNC(=N)N)C(=O)N[C@@H](CO)C(=O)N[C@@H](CO)C(=O)N[C@@H](C)C(=O)N[C@@H](CCSC)C(=O)N[C@@H](CC(=O)O)C(=O)N[C@@H](CCC(=O)O)C(=O)N[C@@H](CC(N)=O)C(=O)N[C@@H](CO)C(=O)N[C@@H](CCC(=O)O)C(=O)N[C@@H](CCCCN)C(=O)N[C@@H](CCCCN)C(=O)N[C@@H](CCCNC(=N)N)C(=O)N[C@@H](CCCCN)C(=O)N[C@@H](CCC(N)=O)C(=O)N[C@@H](C)C(=O)N[C@H](C(=O)N[C@@H](CCCCN)C(N)=O)[C@@H](C)CC
B2: P2pal-18S pepducin (peptide)
peptide: Palmitoyl-RSSAMDENSEKKRKSAIK-NH2
SMILES: CCCCCCCCCCCCCCCC(=O)N[C@@H](CCCNC(=N)N)C(=O)N[C@@H](CO)C(=O)N[C@@H](CO)C(=O)N[C@@H](C)C(=O)N[C@@H](CCSC)C(=O)N[C@@H](CC(=O)O)C(=O)N[C@@H](CCC(=O)O)C(=O)N[C@@H](CC(N)=O)C(=O)N[C@@H](CO)C(=O)N[C@@H](CCC(=O)O)C(=O)N[C@@H](CCCCN)C(=O)N[C@@H](CCCCN)C(=O)N[C@@H](CCCNC(=N)N)C(=O)N[C@@H](CCCCN)C(=O)N[C@@H](CO)C(=O)N[C@@H](C)C(=O)N[C@H](C(=O)N[C@@H](CCCCN)C(N)=O)[C@@H](C)CC
B3: P1pal-i1-11 (peptide)
peptide: Palmitoyl-ILKMKVKKPAV-NH2
SMILES: CCCCCCCCCCCCCCCC(=O)N[C@H](C(=O)N[C@@H](CC(C)C)C(=O)N[C@@H](CCCCN)C(=O)N[C@@H](CCSC)C(=O)N[C@@H](CCCCN)C(=O)N[C@H](C(=O)N[C@@H](CCCCN)C(=O)N[C@@H](CCCCN)C(=O)N1CCC[C@H]1C(=O)N[C@@H](C)C(=O)N[C@H](C(N)=O)C(C)C)C(C)C)[C@@H](C)CC
B4: P1pal-10S (peptide)
peptide: Palmitoyl-NRSKKSSALF-NH2
SMILES: CCCCCCCCCCCCCCCC(=O)N[C@@H](CC(N)=O)C(=O)N[C@@H](CCCNC(=N)N)C(=O)N[C@@H](CO)C(=O)N[C@@H](CCCCN)C(=O)N[C@@H](CCCCN)C(=O)N[C@@H](CO)C(=O)N[C@@H](CO)C(=O)N[C@@H](C)C(=O)N[C@@H](CC(C)C)C(=O)N[C@@H](Cc1ccccc1)C(N)=O
B5: P2pal-14GQ (peptide)
peptide: Palmitoyl-GDENSEKKRKQAIK-NH2
SMILES: CCCCCCCCCCCCCCCC(=O)NCC(=O)N[C@@H](CC(=O)O)C(=O)N[C@@H](CCC(=O)O)C(=O)N[C@@H](CC(N)=O)C(=O)N[C@@H](CO)C(=O)N[C@@H](CCC(=O)O)C(=O)N[C@@H](CCCCN)C(=O)N[C@@H](CCCCN)C(=O)N[C@@H](CCCNC(=N)N)C(=O)N[C@@H](CCCCN)C(=O)N[C@@H](CCC(N)=O)C(=O)N[C@@H](C)C(=O)N[C@H](C(=O)N[C@@H](CCCCN)C(N)=O)[C@@H](C)CC

Columns and labels:
[1] = molecular target: protease-activated receptor-2 (PAR2), wild type, on cells (human, UniProt P55085 37-397); assay: cell-based or functional assay
[2] = molecular target: T1, protease-activated receptor 1 (PAR1), …; assay: cell-based or functional assay

Binder	calcium flux in SW620 cells, antagonist activity against SLIGRL [1]	IC50, Ca++ mobilization by SFLLRN in human platelets [2]	IC50, thrombin-induced ERK1/2 phosphorylation in A549 cells [2]	further results
B1	29 % inhibition	–	–	–
B2	77 % inhibition	–	–	–
B3	–	1.3 µM	–	–
B4	–	0.7 µM	0.8 µM	–
B5	–	–	–	IC50, calcium flux induced by 30 µM SLIGRL in SW620 cells [1]: 8 mM
Palmitoyl-KKSRALF-NH2 [P1pal-7]	–	0.55 µM	0.2 µM	–
